For orientation: Kd means a measure of binding affinity in units of concentration.

Holding throughout (experiment): single-molecule FRET
Holding throughout (conditions): 5' m7GpppAm cap named for viral RNA; 3' poly(A) of unstated length

Series [1] deals with Cy5-eIF4E;eIF4G(557-1137);eIF4A (Homo sapiens;Homo sapiens;Homo sapiens) (UniProt Q04637).
Series [2] addresses Cy5-eIF4E(S209D);eIF4G(557-1137);eIF4A (Homo sapiens;Homo sapiens;Homo sapiens) (UniProt Q04637).
In series [3] the test system is Cy5-eIF4E (Homo sapiens).
The subject of series [4] is Cy5-eIF4E(S209D) (Homo sapiens).

As to capped polyadenylated SARS-CoV-2 5' UTR, the Kd in series [1] was 127 nM; in series [2] it was 78 nM; in series [3] it was 74 nM; in series [4], 62 nM.

Values taken from article doi:10.1101/2021.05.26.445185.
